Values of other authors, collected in publication PMC4815344.

Biological target: soluble epoxide hydrolase (Homo sapiens) (UniProt P34913)

soluble epoxide hydrolase, sequence (P34913 whole entry): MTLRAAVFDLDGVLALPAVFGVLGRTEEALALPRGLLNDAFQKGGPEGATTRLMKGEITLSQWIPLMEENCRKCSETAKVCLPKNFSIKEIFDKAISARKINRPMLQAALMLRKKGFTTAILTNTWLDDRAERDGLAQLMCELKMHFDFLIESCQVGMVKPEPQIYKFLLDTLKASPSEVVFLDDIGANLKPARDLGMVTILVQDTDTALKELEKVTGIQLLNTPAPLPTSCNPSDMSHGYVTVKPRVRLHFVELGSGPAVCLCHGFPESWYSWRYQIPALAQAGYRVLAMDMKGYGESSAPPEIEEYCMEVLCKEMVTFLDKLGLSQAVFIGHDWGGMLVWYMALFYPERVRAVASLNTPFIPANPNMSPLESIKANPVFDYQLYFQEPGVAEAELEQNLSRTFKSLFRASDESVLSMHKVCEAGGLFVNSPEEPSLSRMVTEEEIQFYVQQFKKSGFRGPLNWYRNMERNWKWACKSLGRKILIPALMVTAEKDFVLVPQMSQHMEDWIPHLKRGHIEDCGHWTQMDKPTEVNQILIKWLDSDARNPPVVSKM

Kd: 5 pM
Substance: soluble epoxide hydrolase (from UniProt P34913)
